From the Immune Epitope Database (IEDB) come the findings set out here.

One test concerns the target HLA-A*02:03. Put plainly: IEDB peptide-MHC binding, purified MHC/competitive/radioactivity; filed as Kd, often an IC50 or EC50 that approximates it; ≥ and ≤ were set here for values at or beyond the usual limits of such assays. The conditions noted are these: source organism: Vaccinia virus WR.
As for LMTLDDLAI, the dissociation constant (Kd) amounted to 75.8 nM.

Another test addresses HLA-A*02:06. The description is as above. The conditions noted are these: source organism: Dengue virus 1 Brazil/97-11/1997.
With SQKTTWLPV, the dissociation constant (Kd) stood at 175 nM.

The same test, now with this note: source organism: Mammarenavirus brazilense.
As for LRYFIMAYV, the Kd is no less than 20100 nM.

Staying with this test, now noted: source organism: Mammarenavirus whitewaterense.
As for VCFWSTLFYV, the Kd came out at 1130 nM.

On to FLLRGPFEAS, for which the Kd worked out at 70.3 nM.

The same test, now with this note: source organism: SARS coronavirus Tor2.
With CVMYASALV, the Kd was 7.36 nM.

For SLVKPTVYV, the Kd amounted to 473 nM.

As for CLDAGINYV, the Kd worked out at 1.56 nM.

On to MLLTFLTSLL, for which the Kd was determined as 24.6 nM.

For the sequence TLIDFYLCFL, the Kd came to 3.01 nM.

Staying with this test, now noted: source organism: Vaccinia virus WR.
With RALKAYFTA, the equilibrium dissociation constant (Kd) is 13.7 nM.

Turning to RIYCSLFKNV, the Kd was found to be 7.1 nM.

Take LVQYRILPMI: the Kd amounted to 712 nM.

As to DTSPTKRCRL, the Kd was no less than 44700 nM.

For the sequence GVLPEETNI, the Kd was 573 nM.

Take AVKFAEESYT: the dissociation constant Kd came to 2270 nM.

QLVFNSISA: the Kd is 3780 nM.

For the sequence LLNVQTLISL, the equilibrium dissociation constant (Kd) was 96.7 nM.

Regarding EQYTCNKPYT, the Kd is no less than 45700 nM.

Consider DVGCLLTDTI, for which the Kd was 9990 nM.

In the case of LTSNCTRTT, the Kd is no less than 40400 nM.

DLNAVTTNNL: the equilibrium dissociation constant (Kd) was 7520 nM.

Take FLTGTFVTA: the dissociation constant Kd was determined as 2.05 nM.

On to EQGDIALAL, for which the Kd is 4770 nM.

Turning to LVMDKNHAI, the Kd is 103 nM.

As to MISTYPGNT, the Kd is no less than 25700 nM.

As to MLNRVQILM, the Kd came out at 2560 nM.

For the sequence VAEHRFENM, the Kd was no less than 47900 nM.

Take GILIYDDNI: the Kd is 13300 nM.

As to DLLLPSTDV, the equilibrium dissociation constant (Kd) came out at 1060 nM.

As for IICEDAMYYA, the Kd was found to be 8.78 nM.

With DVEKRILNT, the Kd is no less than 77100 nM.

Consider NIDSIMSMM, for which the equilibrium dissociation constant (Kd) was 4720 nM.

For HVLLPFYET, the equilibrium dissociation constant (Kd) stood at 1740 nM.

In the case of FTKDGKLDDT, the dissociation constant Kd came to 898 nM.

On to ITDNGPMPYM, for which the Kd worked out at 303 nM.

Consider KTPLYYLSGT, for which the Kd is 1420 nM.

On to DLFMSHVKSV, for which the Kd amounted to 19800 nM.

As to KIKQTGINNV, the Kd worked out at 2550 nM.

Regarding STQQNKLVI, the dissociation constant (Kd) was no less than 77100 nM.

With IALCKVTVPT, the equilibrium dissociation constant (Kd) worked out at 652 nM.

TIILNKIVQL: the Kd worked out at 30.4 nM.

As for DAIKSNNHLT, the Kd was no less than 69800 nM.

As to LMTLDDLAI, the equilibrium dissociation constant (Kd) worked out at 288 nM.

Another test has as its target HLA-A*03:01. Described as above. The conditions noted are these: source organism: Dengue virus 1 Brazil/97-11/1997.
As for VMRSRWSRK, the dissociation constant Kd came out at 4.86 nM.

Still in this test, the particulars now being: source organism: Dengue virus 4 Philippines/H241/1956.
Take KILAKAIFK: the Kd is 11.9 nM.

Staying with this test, now noted: source organism: Lymphocytic choriomeningitis virus (strain Armstrong).
In the case of FTNDSIISH, the Kd turned out to be 303 nM.

The same test, now with this note: source organism: Vaccinia virus WR.
For RTKLMSNIK, the Kd came to 23.6 nM.

For KIKLILANK, the Kd was found to be 21.6 nM.

Another test has as its target HLA-A*11:01. The description is as above. The conditions noted are these: source organism: Dengue virus 4 Philippines/H241/1956.
As to KILAKAIFK, the Kd amounted to 79.3 nM.

The test is the same for the next values; noted with them: source organism: Vaccinia virus WR.
On to RTKLMSNIK, for which the Kd amounted to 29.4 nM.

For the sequence KIKLILANK, the Kd was 146 nM.

The next test deals with HLA-A*30:01. The description is as above. As to conditions: source organism: Dengue virus 1 Brazil/97-11/1997.
For the sequence SQKTTWLPV, the Kd amounted to 15.1 nM.

In the case of RLKRMAISG, the equilibrium dissociation constant (Kd) turned out to be 138 nM.

As for KVVRVQRPA, the equilibrium dissociation constant (Kd) amounted to 61.4 nM.

With VMRSRWSRK, the Kd was 10.8 nM.

RARNRVSTG: the Kd came to 180 nM.

The test is the same for the next values; noted with them: source organism: Dengue virus 1 Singapore/S275/1990.
As to AVKSEHTGK, the Kd is 64.3 nM.

Turning to KAKRGTAQI, the Kd amounted to 289 nM.

The same test, now with this note: source organism: Dengue virus 2 Jamaica/1409/1983.
For LALLAAFKVR, the Kd is 74.8 nM.

As for KSHTLWSNG, the dissociation constant Kd was 425 nM.

Turning to LAAVSVSPLL, the dissociation constant (Kd) was found to be 6020 nM.

Consider LRFLTIPPTA, for which the Kd amounted to 951 nM.

The same test, now with this note: source organism: Dengue virus 2 Peru/IQT2913/1996.
As for INRFTMRHK, the dissociation constant (Kd) stood at 1110 nM.

Staying with this test, now noted: source organism: Dengue virus 3 Martinique/1243/1999.
As for SLLRNDVPMA, the equilibrium dissociation constant (Kd) was found to be 2480 nM.

On to ESRTIRVLK, for which the dissociation constant Kd is 8.81 nM.

Staying with this test, now noted: source organism: Dengue virus 4 Philippines/H241/1956.
For the sequence KILAKAIFK, the dissociation constant Kd is 292 nM.

The same test, now with this note: source organism: Lymphocytic choriomeningitis virus (strain Armstrong).
With FTNDSIISH, the Kd was no less than 45500 nM.

The same test, now with this note: source organism: Vaccinia virus Copenhagen.
GSRKSSSIL: the Kd was found to be 1.58 nM.

The test is the same for the next values; noted with them: source organism: Vaccinia virus WR.
As for RTKLMSNIK, the equilibrium dissociation constant (Kd) was determined as 0.38 nM.

For KFRPLMIFM, the equilibrium dissociation constant (Kd) amounted to 1.8 nM.

In the case of RALKAYFTA, the Kd was 66.1 nM.

Take HVSISSCNG: the Kd is 502 nM.

With KIKLILANK, the equilibrium dissociation constant (Kd) is 109 nM.

Consider MTFGDIPLV, for which the equilibrium dissociation constant (Kd) worked out at 235 nM.

Consider KAKWLTPFE, for which the Kd is 667 nM.

Take ASKFVYVSV: the equilibrium dissociation constant (Kd) was found to be 3.09 nM.

Take MGRFGYVPY: the dissociation constant Kd stood at 14.8 nM.

Consider KVKKRYPEF, for which the Kd came to 103 nM.

With KIKAGPRYV, the Kd was 6.93 nM.

Turning to MRRERAAYV, the Kd was determined as 21.8 nM.

Another test concerns the target HLA-A*31:01. Described as above. As to conditions: source organism: Lymphocytic choriomeningitis virus (strain Armstrong).
FTNDSIISH: the Kd was 1990 nM.

The test is the same for the next values; noted with them: source organism: Vaccinia virus WR.
Consider RTKLMSNIK, for which the Kd stood at 4.49 nM.

In the case of KIKLILANK, the Kd stood at 1.46 nM.

The target of the next test is HLA-A*33:01. The test is described as above. As to conditions: source organism: Lymphocytic choriomeningitis virus (strain Armstrong).
Take FTNDSIISH: the dissociation constant Kd is 342 nM.

Still in this test, the particulars now being: source organism: Vaccinia virus WR.
Consider RTKLMSNIK, for which the dissociation constant (Kd) was no less than 56800 nM.

For KIKLILANK, the Kd is no less than 25600 nM.

The target of a further test is HLA-A*68:01. The description is as above. The conditions noted are these: source organism: Dengue virus 3 Martinique/1243/1999.
In the case of ESRTIRVLK, the Kd was 237 nM.

The same test, now with this note: source organism: Lymphocytic choriomeningitis virus (strain Armstrong).
For the sequence FTNDSIISH, the Kd was 81.9 nM.

Staying with this test, now noted: source organism: Vaccinia virus WR.
For the sequence RTKLMSNIK, the Kd is 778 nM.

As for KIKLILANK, the dissociation constant (Kd) was no less than 28300 nM.
